Protein stability index data for 52 sequences are collected here from the supplement of paper PMC10567573.

± gives the standard deviation.

This data set is described as follows: protein stability index of a GFP-peptide fusion (GPS, HEK-293T) (PSI 1-6); higher = more stable.
The mark [1] stands for this setting: treatment: DMSO, c terminus: a fixed tail appended.
[2] abbreviates: treatment: MLN4924 1 uM, 8 h, c terminus: a fixed tail appended.
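Further: 24-mer peptide tiles fused after GFP, lentivirally expressed, FACS-sorted into six equal bins by GFP/DsRed ratio, decoded by Illumina sequencing, PSI is the read-weighted mean bin number.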

For the sequence ENLEGVPSVCSENIHPQVLLPDQA [ZNF263], the protein stability index was determined as 5 ± 0.39 under setting [1] and 4.96 ± 0.11 under setting [2].
Consider ENQRLFEMLGRKCLTLATAVVQLY [WAS], for which the protein stability index turned out to be 2.26 ± 0.21 under setting [1] and 2.44 ± 0.33 under setting [2].
The sequence EPDANFPQFLHEGLSKPVYVINWF [FAM104B] showed a protein stability index under setting [1] of 2.37 ± 0.43 and a protein stability index under setting [2] of 2.48 ± 0.36.
As for EPVAEIGVGAYGTVYKARDPHSGH [CDK4], the protein stability index is, setting by setting: under setting [1], 4.11 ± 0.32; under setting [2], 4.1 ± 0.28.
For the sequence EPVIKVAAIDNGLAFPLKHPDSWR [PI4K2A], the protein stability index stood at 3.41 ± 0.28 under setting [1] and 3.02 ± 0.23 under setting [2].
On the same counts, the results for EQGFSQSFTQEQVADIDGQYAMTR [CTNNB1] are 4.86 ± 0.083 and 4.61 ± 0.16.
Regarding EQHAGTSEGLHLAGTAGHPPSGSQ [FBF1], the protein stability index runs as follows: under setting [1], 5.19 ± 0.3; under setting [2], 5.2 ± 0.15.
In the same order, the values of EQLQQILKRKNKQAFLDELESSDL [MNAT1] are 3.48 ± 0.46 and 3.73 ± 0.39.
For EQTCDPDSSLHWSSSYSPETFRQQ [ZNF396], the protein stability index stood at 4.43 ± 0.12 under setting [1] and 4.58 ± 0.12 under setting [2].
For the sequence EQYERNKSSSSSSSSSSSSSSSSS [TMEM40], the protein stability index turned out to be 5.46 ± 0.32 under setting [1] and 5.49 ± 0.27 under setting [2].
For ERAKELYSSGEFSSGRKWGDDAPK [INTS4], the protein stability index under setting [1] was 4.77 ± 0.33 and the protein stability index under setting [2] is 4.66 ± 0.14.
Consider EREEITTKKRKLGKNPDVDTSFLP [FAM50A], for which the protein stability index was determined as 4.63 ± 0.35 under setting [1] and 4.79 ± 0.24 under setting [2].
On the same counts, the results for ESCEKNDPLSLLDDSKFPIEDTPL [PCDHGA10] are 5.5 ± 0.34 and 5.463 ± 0.028.
Consider ESKMYATSPYSDPVVSMDLDPQPI [PTPRD], for which the protein stability index by setting is: under setting [1], 4.18 ± 0.53; under setting [2], 4.42 ± 0.047.
As to ESPSTLQVLPDSESLPRSEIDEKV [MAGEA10], the protein stability index is, setting by setting: under setting [1], 5.62 ± 0.19; under setting [2], 5.63 ± 0.3.
On the same counts, the results for ESRDRPSCAPSASIPKLKLTRPVP [PWWP2B] are 4.26 ± 0.2 and 4.16 ± 0.14.
On the same counts, the results for ESVEGVVRILLEHYYKENDPSVRL [INTS4] are 2.22 ± 0.46 and 2.46 ± 0.16.
On the same counts, the results for ETAPTTVDRTHALMKKIGQCPMRV [CRYL1] are 3.59 ± 0.14 and 3.68 ± 0.2.
In the case of ETRQKKLEVAMEEEGLADEEKKLR [STK38L], the protein stability index was 5.51 ± 0.18 under setting [1] and 5.6 ± 0.21 under setting [2].
In the same order, the values of ETSYLEMAAGSEPESVEASPVVVE [KMT2E] are 5.38 ± 0.27 and 5.18 ± 0.34.
On the same counts, the results for ETVVSYLPLSHIAAQMMDIWVPIK [ACSBG2] are 2.14 ± 0.36 and 2.04 ± 0.14.
On the same counts, the results for EVLREQAGGDATENFEDVGHSTDA [CYB5A] are 5.57 ± 0.43 and 5.67 ± 0.19.
With EVPEMSPVTCCDVSSNNRLVVTGS [TLE6], the protein stability index reads like this: under setting [1], 4.35 ± 0.31; under setting [2], 4.57 ± 0.1.
For EVSNPSKPGRKTNQLQYMQNVVVK [BRD3], the protein stability index is 3.66 ± 0.11 under setting [1] and 3.79 ± 0.28 under setting [2].
Turning to EWNEKVTQSDLYKKTQETLSQAGQ [TPD52L2], the protein stability index under setting [1] was determined as 4.39 ± 0.35 and the protein stability index under setting [2] is 4.4 ± 0.17.
In the same order, the values of FAGGFVDFGACDGGLLTGNEKITM [KRT13] are 2.73 ± 0.32 and 2.56 ± 0.079.
In the case of FAQYDSFHVDSAAEYYRLHLEGYH [TNXB], the protein stability index amounted to 2.43 ± 0.81 under setting [1] and 2.26 ± 0.23 under setting [2].
On to FARNGALSTHNWTYWQCGQYLGVG [RSAD1], for which the protein stability index reads like this: under setting [1], 2.63 ± 0.66; under setting [2], 2.17 ± 0.17.
As to FATASAAVPVSTSKPSSDLLDLQP [SNAP91], the protein stability index runs as follows: under setting [1], 4.01 ± 0.28; under setting [2], 4.1 ± 0.41.
In the same order, the values of FAYKDEYEKFKLYLTIILILISFT [TMEM120A] are 2.83 ± 0.35 and 2.46 ± 0.52.
On to FCLQKLISLHPFNPWNWGKLAEAY [C8orf76], for which the protein stability index by setting is: under setting [1], 2.85 ± 0.49; under setting [2], 2.82 ± 1.3.
In the same order, the values of FDLCDRTFSLKTVLMIAIQLISRM [CSNK1G3] are 2.89 ± 0.21 and 2.54 ± 0.46.
On the same counts, the results for FEEPEDPSNRSFFSEIISSISDVK [PPP2R2B] are 4.09 ± 0.18 and 4.32 ± 0.15.
On to FFKGLVEAVESTLQTPLDIRLKES [TRIM14], for which the protein stability index came to 2.15 ± 0.33 under setting [1] and 2.29 ± 0.28 under setting [2].
With FGAVVRWAEAECQRQQLPVTFGNK [BTBD1], the protein stability index reads like this: under setting [1], 2.57 ± 0.3; under setting [2], 2.84 ± 0.18.
Sequence FGGGCDLTPTYLNQEDAIHFHRTL [CPOX] had a protein stability index under setting [1] of 2.62 ± 0.4 and a protein stability index under setting [2] of 2.81 ± 0.3.
On the same counts, the results for FHKDCASRVNNASYCPHCGEESSK [EHMT1] are 3.45 ± 0.15 and 4.05 ± 0.47.
In the same order, the values of FKISGMNGIHVCMVFEVLGHHLLK [SRPK2] are 3.01 ± 0.34 and 2.92 ± 0.31.
Consider FKPACMSEIKNLERYMCSRFFIDF [TENT5D], for which the protein stability index reads like this: under setting [1], 2.55 ± 0.61; under setting [2], 2.42 ± 0.58.
In the case of FLCAAGDAGEESRVQVLKNEVRRG [TIAF1], the protein stability index runs as follows: under setting [1], 4.18 ± 0.31; under setting [2], 4.22 ± 0.11.
In the same order, the values of FLLQNDANPSIRDKEGYNSIHYAA [ANKRD44] are 2.75 ± 0.25 and 2.85 ± 0.32.
On the same counts, the results for FLLVLAVVAGDTVSTGSTDNSPTS [ADAMTSL2] are 2.5 ± 0.45 and 2.28 ± 0.43.
On the same counts, the results for FLQKVAQMPQEEVELLPPAPKGKG [BRD3] are 4.24 ± 0.17 and 4.32 ± 0.13.
As for FLRSIDQFANLVLHQTVERIHVGK [LSM1], the protein stability index is, setting by setting: under setting [1], 2.95 ± 0.55; under setting [2], 2.46 ± 0.39.
On the same counts, the results for FNIAGTVVKYRRPMDVYETGIEYI [ADAMTSL2] are 2.16 ± 0.33 and 1.8 ± 0.046.
Turning to FPEALDELPLPPFLQPLDLTGKG [ANKRD9], the protein stability index (treatment: DMSO, c terminus: native) stood at 3.43 ± 0.22 and the protein stability index (treatment: MLN4924 1 uM, 8 h, c terminus: native) was determined as 3.52 ± 0.12.
Regarding FPETTFISVTAYQNPQITQLKIAA [TBX6], the protein stability index under setting [1] came to 2.58 ± 0.72 and the protein stability index under setting [2] was 2.73 ± 0.59.
On the same counts, the results for FPHSGKDCLLCFPETLPESSLFSV [C8orf76] are 2.21 ± 0.52 and 2.36 ± 0.32.
On the same counts, the results for FPPEGNMEDKEMTGPQLPESLEDV [ZNF263] are 5.58 ± 0.21 and 5.48 ± 0.22.
As for FPTVVWTWWIMFLSTFSVPYFLFQ [SOAT1], the protein stability index runs as follows: under setting [1], 3.1 ± 0.56; under setting [2], 2.99 ± 0.45.
For the sequence FREVYVGKETMCTVDGLHFNSTYN [TRIM9], the protein stability index runs as follows: under setting [1], 2.23 ± 0.098; under setting [2], 2.4 ± 0.28.
On the same counts, the results for FRVGKKIGCGNFGELRLGKNLYTN [CSNK1G3] are 2.06 ± 0.19 and 2.28 ± 0.087.
